The chains are these.
B1: SRF365-C (antibody, V domains shown)
VH: QVQLVQSGAEVKKPGSSVKVSCKASGGTFSDKAISWVRQAPGQGLEWMGSILPIFGTANYAQKFQGRVTITADESTSTAYMELSSLRSEDTAVYYCAREAGYYRYRYFDLWGRGTLVTVSS
VL: EIVMTQSPATLSVSPGERATLSCRASQSVSSNLAWYQQKPGQAPRLLIYGASTRATGIPARFSGSGSGTEFTLTISSLQSEDFAVYYCQQHALWPLTFGGGTKVEIKR
B2: SRF367-C (antibody, V domains shown)
VH: B1 VH with D31S, K32E, A33G, R113K
VL: B1 VL
B3: SRF370-C (antibody, V domains shown)
VH: QVQLVQSGAEVKKPGSSVKVSCKASGGTFSTYAIGWVRQAPGQGLEWMGGIIPAFGTANYAQKFQGRVTITADESTSTAYMELSSLRSEDTAVYYCARDPVRRSPFDIWGQGTMVTVSS
VL: EIVLTQSPATLSLSPGERATLSCRASQSVSSYLAWYQQKPGQAPRLLIYDSSNRATGIPARFSGSGSGTDFTLTISSLEPEDFAVYYCQQSFLWPRTFGGGTKVEIKR
B4: SRF360-C (antibody, V domains shown)
VH: EVQLVESGGGLVKPGGSLRLSCAASGFTFSSYRMNWVRQAPGKGLEWVSSISSSSSSIWYADSVKGRFTISRDNAKNSLYLQMNSLRAEDTAVYYCAKGPRYDSSGYRWRYGMDVWGQGTTVTVSS
VL: DIQMTQSPSSLSASVGDRVTITCRASQSISSYLNWYQQKPGKAPKLLIYAASSLQSGVPSRFSGSGSGTDFTLTISSLQPEDFATYYCQQLYVDPPWTFGGGTKVEIKR
B5: SRF365-C (antibody, V domains shown)
VH: B1 VH
VL: B1 VL
B6: SRF367-C (antibody, V domains shown)
VH: B1 VH with D31S, K32E, A33G, R113K
VL: B1 VL
B7: SRF360-C (antibody, V domains shown)
VH: B4 VH
VL: B4 VL

Numbering of substitutions follows the chain as printed.

The first assay addresses T1, human CD39 (ectonucleoside triphosphate diphosphohydrolase 1) (UniProt P49961 1-510).
T1 chain: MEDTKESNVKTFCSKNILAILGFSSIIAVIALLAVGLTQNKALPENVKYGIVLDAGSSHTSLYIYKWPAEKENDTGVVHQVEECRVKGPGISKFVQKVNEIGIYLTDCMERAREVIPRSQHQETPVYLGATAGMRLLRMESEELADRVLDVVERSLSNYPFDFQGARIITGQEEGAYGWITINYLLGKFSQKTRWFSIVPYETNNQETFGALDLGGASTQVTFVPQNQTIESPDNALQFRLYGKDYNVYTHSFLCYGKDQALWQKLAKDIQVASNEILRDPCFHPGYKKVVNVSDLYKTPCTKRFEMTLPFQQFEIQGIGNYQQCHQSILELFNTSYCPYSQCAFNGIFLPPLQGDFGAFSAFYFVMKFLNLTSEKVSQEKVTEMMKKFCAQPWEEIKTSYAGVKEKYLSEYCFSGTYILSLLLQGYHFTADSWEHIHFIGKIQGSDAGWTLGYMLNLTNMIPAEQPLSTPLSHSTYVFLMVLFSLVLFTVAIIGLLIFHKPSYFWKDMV
The experiment in a line: ForteBio (BLI); IgG, monovalent.
Take B1: the Kd was 0.556 nM.

B2 returned a Kd of 1.57 nM. Same read-out and setting: to B3 belongs 2.59 nM; to B4, 0.772 nM.

In a further assay the target is T1, human CD39 (ectonucleoside triphosphate …). The experiment in a line: MSD equilibrium; Fab.
B5: binding was put at a Kd of 0.051 nM.

The molecule B6 registered a Kd of 0.24 nM. As for B7, the Kd is 0.044 nM.

Values taken from patent US20200399394A1 (published 2020).
